Assay [1] concerns the target human insulin receptor, A isoform (human) (UniProt P06213). In words: SPA competition with [125I-A14Y]-human insulin, solubilised hIR-A, 0% HSA (Ex 25).
The target is the same in assay [2]. The assay is described as follows: SPA competition with [125I-A14Y]-human insulin, solubilised hIR-A, […] HSA (Ex 25).
The target is the same in assay [3]. In words: SPA competition with [125I-A14Y]-human insulin, membrane-associated hIR-A, 0.1% HSA (Ex 26).
Assay [4] addresses human insulin receptor, B isoform (human) (UniProt P06213). In words: SPA competition with [125I-A14Y]-human insulin, membrane-associated hIR-B, 0.1% HSA (Ex 26).
Assay [5] addresses human insulin-like growth factor 1 receptor (human) (UniProt P08069). The assay is described as follows: SPA competition with [125I-Tyr31]-human IGF-1, membrane-associated hIGF-1R, 0.1% HSA (Ex 26).

As for “A8H, A21A, B3E, desB27, B29K(N(eps)tetradecanedioyl-gGlu-2×OEG), desB30 human insulin (ligand)”, the relative binding affinity (% rel to HI) is 225 % rel to HI in assay [1], 82.3 % rel to HI in assay [2], 83.7 % rel to HI in assay [3] and 81.9 % rel to HI in assay [4].
The corresponding values for “A21A, B3Q, desB27, B29K(N(eps)hexadecanedioyl-gGlu-2×OEG), desB30 human insulin (ligand)” are 76.9 % rel to HI, 5.6 % rel to HI, 15.8 % rel to HI and 14.6 % rel to HI.
Consider “A21A, B3E, desB27, B29K(N(eps)hexadecanedioyl-gGlu-2×OEG), desB30 human insulin (ligand)”, for which the relative binding affinity (% rel to HI) in assay [2] is 3.6 % rel to HI; in assay [3] it was 14.3 % rel to HI; in assay [4], 13.2 % rel to HI; in assay [5], 0.1 % rel to HI.
Turning to “A21A, B3Q, desB27, B29K(N(eps)tetradecanedioyl-gGlu-2×OEG), desB30 human insulin (ligand)”, the relative binding affinity (% rel to HI) was 87.7 % rel to HI in assay [1], 32 % rel to HI in assay [2], 63.8 % rel to HI in assay [3] and 48.8 % rel to HI in assay [4].
Taken in the same sequence, the figures for “A21A, B3E, desB27, B29K(N(eps)hexadecanedioyl-4×gGlu), desB30 human insulin (ligand)” were 69 % rel to HI, 6.2 % rel to HI, 14.2 % rel to HI and 15 % rel to HI.
The corresponding values for “A21A, B3E, desB27, B29K(N(eps)tetradecanedioyl-gGlu-2×OEG), desB30 human insulin (ligand)” are 63.4 % rel to HI, 22.3 % rel to HI, 52.1 % rel to HI and 49.6 % rel to HI.
As for “A14E, A21A, B3Q, desB27, B29K(N(eps)tetradecanedioyl-4×gGlu), desB30 human insulin (ligand)”, the relative binding affinity (% rel to HI) in assay [1] is 63.8 % rel to HI; in assay [2], 37.4 % rel to HI; in assay [3], 31 % rel to HI; in assay [4] it was 36.8 % rel to HI.
For the substance “A21A, B3E, desB27, B29K(N(eps)tetradecanedioyl-4×gGlu), desB30 human insulin (ligand)”, the relative binding affinity (% rel to HI) was 70.5 % rel to HI in assay [1], 32.3 % rel to HI in assay [2], 40.5 % rel to HI in assay [3] and 42.3 % rel to HI in assay [4].
With “A8H, A21G, B3E, desB27, B29K(N(eps)tetradecanedioyl-gGlu-2×OEG), desB30 human insulin (ligand)”, the relative binding affinity (% rel to HI) in assay [1] was 100 % rel to HI; in assay [2] it was 42.4 % rel to HI; in assay [3], 89.6 % rel to HI; in assay [4], 90.2 % rel to HI.
In the case of “A8H, B3E, desB27, B29K(N(eps)tetradecanedioyl-gGlu-2×OEG), desB30 human insulin (ligand)”, the relative binding affinity (% rel to HI) in assay [1] is 172 % rel to HI; in assay [2], 70.5 % rel to HI; in assay [3], 84.1 % rel to HI; in assay [4] it was 82.1 % rel to HI.
The corresponding values for “A21G, B3E, desB27, B29K(N(eps)tetradecanedioyl-gGlu-2×OEG), desB30 human insulin (ligand)” are 23.8 % rel to HI, 9.2 % rel to HI, 28.9 % rel to HI and 29 % rel to HI.
Taken in the same sequence, the figures for “A21A, B3Q, desB27, B29K(N(eps)hexadecanedioyl-4×gGlu), desB30 human insulin (ligand)” were 99.5 % rel to HI, 8.2 % rel to HI, 14.1 % rel to HI and 15.4 % rel to HI.
For “A21A, B3Q, desB27, B29K(N(eps)tetradecanedioyl-4×gGlu), desB30 human insulin (ligand)”, the relative binding affinity (% rel to HI) in assay [1] is 104 % rel to HI; in assay [2] it was 42.4 % rel to HI; in assay [3], 49.4 % rel to HI; in assay [4], 62.9 % rel to HI.
As to “B3Q, desB27, B29K(N(eps)tetradecanedioyl-4×gGlu), desB30 human insulin (from UniProt P01308 90-110) (ligand)”, the relative binding affinity (% rel to HI) in assay [5] is 4.1 % rel to HI.
As for “A8R, B3E, desB27, B29K(N(eps)tetradecanedioyl-gGlu-2×OEG), desB30 human insulin (ligand)”, the relative binding affinity (% rel to HI) in assay [1] is 103 % rel to HI; in assay [2] it was 45.5 % rel to HI; in assay [3] it was 61.3 % rel to HI; in assay [4], 67.9 % rel to HI.
The corresponding values for “A8H, A21A, B3E, desB27, B29K(N(eps)tetradecanedioyl-4×gGlu), desB30 human insulin (ligand)” are 253 % rel to HI, 135 % rel to HI, 88.5 % rel to HI and 124 % rel to HI.

For the origin of these results see patent publication US20180244743A1.
